Experimental data from the supplement of paper PMC9170038.

Tested on: MS2 coat protein
Test: apparent KD of MS2 coat protein; designed switch direction (-1 OFF switch, 1 ON switch): -1; higher = weaker reporter binding
Outline: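 RNA switches sharing common flanks were transcribed by stalled E. coli RNA polymerase on Illumina chips. A doubling series of SNAP-549-labelled MS2 coat protein, from 0.7 or 1.5 nM to 3 µM, was applied in Tris-HCl pH 7.5 buffer with KCl, MgCl2, BSA, DTT, tRNA and Tween-20. Each step lasted 0.8–1.5 h at the bottom of the series and 10–20 min at the top. Normalised cluster fluorescence was curve-fitted, giving apparent KD as the per-design median over clusters.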

[1] = input ligand: microRNA oligo, concentration not stated
[2] = Eterna round: R95, input ligand: FMN 200 uM
[3] = Eterna round: R95, input ligand: microRNA oligo, concentration not stated
[4] = Eterna round: R95, input ligand: none

## CGUAGCAAUGUGAGGAUAUCUAGAGCCUCGGCUCUAGAGAAGGCACAUGAGGAUCACCCAUGUGAUUAGCUACG [BmEx4/9-B2] (Eterna round: R97, puzzle: Brourd's mod of Exclusion 4)
Input ligand: FMN 200 uM
  apparent KD of MS2 coat protein: 597 nM
Input ligand: none
  apparent KD of MS2 coat protein: 405 nM

## CGUCAGAUCGCAGGAUAUGUUAGAUGAGCACAGAAUGUCCAGACCACAUGAGGAUCACCCAUGUAACAGAAGGGCGGUCUACGG [Eternabot solution 29] (Eterna round: R96, puzzle: Exclusion NG 2)
Input ligand: FMN 200 uM
  apparent KD of MS2 coat protein: 79.3 nM
[1]
  apparent KD of MS2 coat protein: 195 nM
Input ligand: none
  apparent KD of MS2 coat protein: 95.6 nM

## CGUCAGUCAGGAUAUGCAUACGUAGACAUGAGGAUCACCCAUGUGACGUGGGACUGGUGUGUAGAAGGGACGAACA [EX5 #78] (Eterna round: R97, puzzle: Exclusion 5)
Input ligand: FMN 200 uM
  apparent KD of MS2 coat protein: 23.1 nM
Input ligand: none
  apparent KD of MS2 coat protein: 21.3 nM

## CGUCCUGAAGUGAGGAUAUUGUCUCGGAUACGAAACAAGAAGGCACAUGAGGAUCACCCAUGUAAACAGGACGA [Malc #30 mod 11] (puzzle: Brourd's mod of Exclusion 4)
[2]
  apparent KD of MS2 coat protein: 15.3 nM
[3]
  apparent KD of MS2 coat protein: 15.6 nM
[4]
  apparent KD of MS2 coat protein: 16.9 nM

## CGUCUGUUAGGAUAUGACCCGCGUACCGUGUCGAGCCGGGUUCAGAAGGAACAUGAGGAUCACCCAUGUGAGAA [Eternabot (L1) Solution 12] (Eterna round: R97, puzzle: Exclusion 4)
Input ligand: FMN 200 uM
  apparent KD of MS2 coat protein: 163 nM
Input ligand: none
  apparent KD of MS2 coat protein: 27.3 nM

## CGUGACUCAGGAUAUCUAUAGUGUCACAUGAGGAUCACCCAUGUCCAGCGAAAGCUGGAGGGAGAAGGGAGUCACG [Fiskers Ex 5 - 43] (Eterna round: R96, puzzle: Exclusion 5)
Input ligand: FMN 200 uM
  apparent KD of MS2 coat protein: 43.1 nM
[1]
  apparent KD of MS2 coat protein: 71.5 nM
Input ligand: none
  apparent KD of MS2 coat protein: 87.7 nM

## CGUGACUCAGGAUAUCUAUAGUGUCACAUGAGGAUCACCCAUGUCCAGCGAAAGCUGGAGGGAGAAGGGAGUCACG [Fiskers Ex 5 - 43] (puzzle: Exclusion 5)
[3]
  apparent KD of MS2 coat protein: 90.5 nM

## CGUGACUCAGGAUAUCUAUGAUAUCACAUGAGGAUCACCCAUGUCCAGCAAUAGCUGGAGGGAGAAGGGAGUCACG [Fiskers Ex 5 - 41] (puzzle: Exclusion 5)
[2]
  apparent KD of MS2 coat protein: 84 nM
[3]
  apparent KD of MS2 coat protein: 54.3 nM
[4]
  apparent KD of MS2 coat protein: 166 nM

## CGUGACUGAGGAUAUCUAUAAUAUCACAUGAGGAUCACCCAUGUCCAGCGAAAGCUGGAGGGAGAAGGCAGUCACG [Fiskers Ex 5 - 29] (puzzle: Exclusion 5)
[2]
  apparent KD of MS2 coat protein: 53 nM
[3]
  apparent KD of MS2 coat protein: 127 nM
[4]
  apparent KD of MS2 coat protein: 75.3 nM

## CGUGCGUAUGUGAGGAUAUGCUGGUCCUUGGAUCGGCAGAAGGCACAUGAGGAUCACCCAUGUGGUGUCGUGCA [salish99_Bmod_ex4_090] (puzzle: Brourd's mod of Exclusion 4)
[3]
  apparent KD of MS2 coat protein: 190 nM

## CGUGUCUUUCACGUGAGUGGUGGGUGCAACAGGUGGGAAACAUGAGGAUCACCCAUGUCCUCAUUUGCUCGUCUUAU [Grok-var2-02] (puzzle: Sensor v3, turn-off variant 2)
[2]
  apparent KD of MS2 coat protein: 686 nM
[3]
  apparent KD of MS2 coat protein: 457 nM
[4]
  apparent KD of MS2 coat protein: 572 nM

## CGUUGGCGAGGAUAUACAUGAGGAUCACCCAUGUGAGAGAAAAAAGUGAGGAAGAAAAGUAGAAGGCGCUGACC [salish99_ex3_r3_049] (puzzle: Exclusion 3)
[2]
  apparent KD of MS2 coat protein: 110 nM
[3]
  apparent KD of MS2 coat protein: 42.7 nM
[4]
  apparent KD of MS2 coat protein: 45.9 nM

## CUAAAUCAUGUAGGAUAUGCGUGGCGAAGCUAUGCAGAAGGACAUGAGGAUCACCCAUGUGCUUCCGUCUGAGAACAGACGGAA [Mat - Exclusion NG 1 - Mod of JL - D26] (Eterna round: R96, puzzle: Exclusion NG 1)
Input ligand: FMN 200 uM
  apparent KD of MS2 coat protein: 115 nM
[1]
  apparent KD of MS2 coat protein: 277 nM
Input ligand: none
  apparent KD of MS2 coat protein: 251 nM

## CUAACAUGCUGGUGAUCAUACAUGAGGAUCACCCAUGUAACAAGCUUUUUGUUCGUCUUAUAAGAUUACUAGUAUGU [Stov1/10-B3] (Eterna round: R97, puzzle: Sensor, turn-off variant 1)
Input ligand: FMN 200 uM
  apparent KD of MS2 coat protein: 38.8 nM
Input ligand: none
  apparent KD of MS2 coat protein: 52.3 nM

## CUAGAGCGAGGAUAUACAUGAGGAUCACCCAUGUGGCAGCCGGGUAGGAGUGACGUCGGUAGAAGGCGCACCCG [Anrate] (puzzle: Exclusion 3)
[2]
  apparent KD of MS2 coat protein: 27.5 nM
[3]
  apparent KD of MS2 coat protein: 33.2 nM
[4]
  apparent KD of MS2 coat protein: 37.9 nM

## CUAGAUCUUCGGAUCUAGUACAUGAGGAUCACCCAUGUUACGAGUUGAUUUUCAUACAAGCUUUUUGCUCGUCUUAU [Sensor v3 - Turn-off variant 1 - 28] (puzzle: Sensor v3, turn-off variant 1)
[2]
  apparent KD of MS2 coat protein: 134 nM
[3]
  apparent KD of MS2 coat protein: 84.4 nM
[4]
  apparent KD of MS2 coat protein: 153 nM

## CUAGCGAAUGUAGGAUAUCGGACUGUUUCAGUCUGAGAAGGACAUGAGGAUCACCCAUGUAUUGCUACGUGAGUAGCUCGCUAG [JL ENG1 3.92] (Eterna round: R96, puzzle: Exclusion NG 1)
Input ligand: FMN 200 uM
  apparent KD of MS2 coat protein: 32.4 nM
[1]
  apparent KD of MS2 coat protein: 13.7 nM
Input ligand: none
  apparent KD of MS2 coat protein: 18 nM

## CUAGCGAGUGUAGGAUAUCGGACUGUUUCAGUCUGAGAAGGACAUGAGGAUCACCCAUGUGAAGCUACGUGAGUAGCACGCUAG [JL ENG1 3.87] (Eterna round: R96, puzzle: Exclusion NG 1)
Input ligand: FMN 200 uM
  apparent KD of MS2 coat protein: 74.5 nM
[1]
  apparent KD of MS2 coat protein: 18.3 nM
Input ligand: none
  apparent KD of MS2 coat protein: 24.5 nM

## CUAGCGAUUGUAGGAUAUCGAUGUGUUUCACAUCGAGAAGGACAUGAGGAUCACCCAUGUGAAGGAUCGUGAGAUCCACGCUAG [JL ENG1 3.78] (Eterna round: R96, puzzle: Exclusion NG 1)
Input ligand: FMN 200 uM
  apparent KD of MS2 coat protein: 76.6 nM
[1]
  apparent KD of MS2 coat protein: 17.5 nM
Input ligand: none
  apparent KD of MS2 coat protein: 19.7 nM

## CUAGCUUCGGCUAGUACAAGCUUUUUGCUCGUCUUAUUAACAUGAGGAUCACCCAUGUUAAUGAGACCUCAUGUAUU [Sensor v3 - turn-off variant 2 - 9] (Eterna round: R96, puzzle: Sensor v3, turn-off variant 2)
Input ligand: FMN 200 uM
  apparent KD of MS2 coat protein: 11.5 nM
[1]
  apparent KD of MS2 coat protein: 12.2 nM
Input ligand: none
  apparent KD of MS2 coat protein: 13.6 nM

## CUAGCUUCGGCUAGUACAAGCUUUUUGCUCGUCUUAUUAACAUGAGGAUCACCCAUGUUAAUGAGACCUCAUGUAUU [Sensor v3 - turn-off variant 2 - 9] (puzzle: Sensor v3, turn-off variant 2)
[2]
  apparent KD of MS2 coat protein: 12.7 nM
[3]
  apparent KD of MS2 coat protein: 15.2 nM
[4]
  apparent KD of MS2 coat protein: 11.1 nM

## CUAGGGCACAUUUAAACGCCCUAACAUGAGGAUCACCCAUGUCAGGAUAUGUAGGCAAAGACCCUACAGAAGGGACAUGUCCUA [Recebe] (Eterna round: R96, puzzle: Exclusion NG 3)
Input ligand: FMN 200 uM
  apparent KD of MS2 coat protein: 303 nM
[1]
  apparent KD of MS2 coat protein: 42.9 nM
Input ligand: none
  apparent KD of MS2 coat protein: 52.9 nM

## CUAUCAAGCAAGGAUAUGCAAAUAAUUAUUUAUGCAGAAGGUGCAACAUGAGGAUCACCCAUGUUUCUGGGUUU [JR_E6_Sub048] (puzzle: Exclusion 6)
[3]
  apparent KD of MS2 coat protein: 44.9 nM

## CUAUCAAGCAAGGAUAUGCAAUUUAUUAUUUAUGCAGAAGGUGCAACAUGAGGAUCACCCAUGUUUCUGGGUUU [JR_E6_Sub047] (puzzle: Exclusion 6)
[3]
  apparent KD of MS2 coat protein: 39.5 nM

## CUAUCUAGAGGAUAUACGAGAUCGAAAGAUCGGCGAUCCCUACAUGAGGAUCACCCAUGUAGAAGGCUAGAUAG [Mod 16 - Jieux - Exclusion 2] (Eterna round: R97, puzzle: Exclusion 2)
Input ligand: FMN 200 uM
  apparent KD of MS2 coat protein: 99.5 nM
Input ligand: none
  apparent KD of MS2 coat protein: 18.6 nM

## CUAUGUUAGCAGGAUAUGCCAUUAUUCCUUUACGCAGAAGGGCUUACAUGAGGAUCACCCAUGUUACAUUUCAU [JR_E6_Sub084] (puzzle: Exclusion 6)
[3]
  apparent KD of MS2 coat protein: 15.7 nM

## CUAUUACGAGGAUAUGAUUUAAAUAACAUGAGGAUCACCCAUGUUUUUACGUUAUUUUAUUUAGAAGGCGUAUUGU [JR_E5_Sub028] (puzzle: Exclusion 5)
[2]
  apparent KD of MS2 coat protein: 34.1 nM
[3]
  apparent KD of MS2 coat protein: 53.7 nM
[4]
  apparent KD of MS2 coat protein: 61.5 nM

## CUCAUGUGAGGAUAUCAGUAGUAAAAAAAUAAAAUUACUACUGAGAAGGCACAUGAGGAUCACCCAUGUGUCUU [EX4 331: Super Stable 31] (Eterna round: R96, puzzle: Exclusion 4)
[1]
  apparent KD of MS2 coat protein: 13.3 nM

## CUCAUGUGAGGAUAUGUGAUCAACCUUCUAUAUAGAUGAUGACAGAAGGCACAUGAGGAUCACCCAUGUAGAUC [Ex4 - 3 - 19] (puzzle: Exclusion 4)
[3]
  apparent KD of MS2 coat protein: 37.9 nM

## CUCCGGCGUGUAGGAUAUGGAUCCGAUUAGGAUCCAGAAGGACAUGAGGAUCACCCAUGUACAUGUCGGCGGUCGUCACCGGGC [salish99_ExNG1_r04_209] (Eterna round: R96, puzzle: Exclusion NG 1)
Input ligand: FMN 200 uM
  apparent KD of MS2 coat protein: 34 nM
[1]
  apparent KD of MS2 coat protein: 14.4 nM
Input ligand: none
  apparent KD of MS2 coat protein: 20.1 nM

## CUCGUGUGAGGAUAUCGAUUAUGGAAGUCUAGAUCCAUACGCGAGAAGGCACAUGAGGAUCACCCAUGUAAUGG [jl-ex4-4.35 ViennaUCT mod] (Eterna round: R97, puzzle: Exclusion 4)
Input ligand: FMN 200 uM
  apparent KD of MS2 coat protein: 68.3 nM
Input ligand: none
  apparent KD of MS2 coat protein: 176 nM

## CUCGUGUGAGGAUAUUCACACCCGUUGCAGCGACGGACAAAGAAGAAGGCACAUGAGGAUCACCCAUGUAAAGA [Onan] (Eterna round: R97, puzzle: Exclusion 4)
Input ligand: FMN 200 uM
  apparent KD of MS2 coat protein: 97.8 nM
Input ligand: none
  apparent KD of MS2 coat protein: 192 nM

## CUCUUGUCAGGAUAUUAUGGACGAUAGCAGGACUACGUCAGUGAGAAGGGACAUGAGGAUCACCCAUGUAAAAU [Anqubi] (puzzle: Exclusion 4)
[3]
  apparent KD of MS2 coat protein: 72.6 nM

## CUCUUGUGAGGAUAUCUCCCAGCGAUUAAUUGGGCAGUCUGAGAGAAGGUACAUGAGGAUCACCCAUGUGAUAG [Eternabot (L1) Solution 73] (Eterna round: R97, puzzle: Exclusion 4)
Input ligand: FMN 200 uM
  apparent KD of MS2 coat protein: 69.3 nM
Input ligand: none
  apparent KD of MS2 coat protein: 61.7 nM
